Reference: US10441663B2, “Methods for treating cancer” (Bicycle Therapeutics Limited, priority 2016, dated 2019)
“Also recorded” adds a separate entry of the source. *1 amine or outer side, *2 acyl side, *3 side chain or, on linkers, in order; H or OH if unused. Where a SMILES comes first, the peptide text is derived from it. Bridges are numbered along the chain shown (N, C = ends). [ ]: non-standard residue; d: D form. The star is where a group is joined. X1 = COc1cc2cc(c1Cl)N(C)C(=O)C[C@H](OC(=O)[C@H](C)N(C)C(=O)CCSSC(C)CCC(=O)*)[C@]1(C)O[C@H]1[C@H](C)[C@@H]1C[C@@](O)(NC(=O)O1)[C@H](OC)/C=C/C=C(\C)C2; 1Nal = N[C@@H](Cc1cccc2ccccc12)C(=O)O; TBMB = c1c(C[*:1])cc(C[*:3])cc1C[*:2]; Tle = CC(C)(C)[C@H](N)C(=O)O; βAla = NCCC(=O)O; Sar = CNCC(=O)O

Test system: EBC-1 xenograft
Experiment: Efficacy of BT1718 in EBC-1 xenograft model (Example 1)
Format: in vivo, Mus Musculus
Details: for Tumor Size (mm^3): Mean ± SEM
Method: The objective of this study was to evaluate the anti-tumor efficacy of BT1718 in EBC-1 xenograft model in female BALB/c nude mice.
The EBC-1 tumor cells were maintained in vitro as a monolayer culture in EMEM medium supplemented with 10% heat inactivated fetal bovine serum at 37° C. in an atmosphere of 5% CO2 in air. The tumor cells will be routinely subcultured twice weekly by trypsin-EDTA treatment. The cells growing in an exponential growth phase will be harvested and counted for tumor inoculation.
Each mouse was inoculated subcutaneously at the right flank with EBC-1 tumor cells (10×10^6) in 0.2 ml of PBS for tumor development. The animals were randomized and treatment was started when the average tumor volume reaches approximately 165 mm^3 for the efficacy study.
All the procedures related to animal handling, care and the treatment in the study were performed according to the guidelines of the Association for Assessment and Accreditation of Laboratory Animal Care (AAALAC). At the time of routine monitoring, the animals were daily checked for any effects of tumor growth and treatments on normal behavior such as mobility, food and water consumption (by looking only), body weight gain/loss (body weights were measured every day), eye/hair matting and any other abnormal effect as stated in the protocol. Death and observed clinical signs were recorded on the basis of the numbers of animals within each subset.
The major endpoint was to see if the tumor growth could be delayed or mice could be cured. Tumor size was measured three times weekly in two dimensions using a caliper, and the volume was expressed in mm^3 using the formula: V=0.5 a×b^2 where a and b are the long and short diameters of the tumor, respectively. The tumor size was then used for calculations of T/C value. The T/C value (in percent) is an indication of antitumor effectiveness; T and C are the mean volumes of the treated and control groups, respectively, on a given day.
TGI was calculated for each group using the formula: TGI (%)=[1−(Ti−T0)/(Vi−V0)]×100; Ti is the average tumor volume of a treatment group on a given day, T0 is the average tumor volume of the treatment group on the day of treatment start, Vi is the average tumor volume of the vehicle control group on the same day with Ti, and V0 is the average tumor volume of the vehicle group on the day of treatment start.
Summary statistics, including mean and the standard error of the mean (SEM), are provided for the tumor volume of each group at each time point.
Statistical analysis of difference in tumor volume among the groups was conducted on the data obtained at the best therapeutic time point after the final dose.
A one-way ANOVA was performed to compare tumor volume among groups, and when a significant F-statistics (a ratio of treatment variance to the error variance) was obtained, comparisons between groups were carried out with Games-Howell test. All data were analyzed using Prism. P<0.05 was considered to be statistically significant.

COc1cc2cc(c1Cl)N(C)C(=O)C[C@H](OC(=O)[C@H](C)N(C)C(=O)CCSSC(C)CCC(=O)NCCC(=O)N(C)CC(=O)N(C)CC(=O)N(C)CC(=O)N(C)CC(=O)N(C)CC(=O)N(C)CC(=O)N(C)CC(=O)N(C)CC(=O)N(C)CC(=O)N(C)CC(=O)N[C@@H](C)C(=O)N[C@H]1CSCc3cc4cc(c3)CSC[C@H](NC(=O)[C@@H](C)NC(=O)[C@H](Cc3cccc5ccccc35)NC(=O)[C@H](CCC(=O)O)NC(=O)[C@H](CC(N)=O)NC(=O)[C@@H](C)NC1=O)C(=O)N[C@@H](CCC(=O)O)C(=O)N[C@@H](CC(=O)O)C(=O)N[C@@H](Cc1ccccc1)C(=O)N[C@@H](Cc1ccc(O)cc1)C(=O)N[C@@H](CC(=O)O)C(=O)N[C@@H](C(C)(C)C)C(=O)N[C@H](C(N)=O)CSC4)[C@]1(C)O[C@H]1[C@H](C)[C@@H]1C[C@@](O)(NC(=O)O1)[C@H](OC)/C=C/C=C(\C)C2 (some centres unmarked) [BT1718] ({X1-βAla}-[Sar][Sar][Sar][Sar][Sar][Sar][Sar][Sar][Sar][Sar]AC[dA]NE[1Nal][dA]CEDFYD[Tle]C-NH2; linker 12-18-25 via TBMB (inferred))
tumor growth (3 mg/kg, twice weekly for two weeks): significant reduction in tumor growth | post-treatment monitoring (9 mg/kg qw group and 4.5 mg/kg biw group): re-growth after dosing cessation | tumor response (10 mg/kg tiw): complete tumor clearance | tumor response (10 mg/kg, twice weekly for two weeks): complete regressions | body weight effect (30 mg/kg qw): marked body weight loss; also recorded: severe body weight loss | tumor response (30 mg/kg qw, 15 mg/kg biw, 10 mg/kg tiw and 4.3 mg/kg qd, by day 14): completely regressed the tumor | Body Weight (1.3 mpk qd, day 0): 25.1 ± 0.3 g | Body Weight (% Change) (1.3 mpk qd, day 0): 0.0% | Tumor Volume (1.3 mpk qd, day 0): 161 ± 22 mm^3 | Body Weight (1.3 mpk qd, day 2): 24.6 ± 0.6 g | Body Weight (% Change) (1.3 mpk qd, day 2): −2.0 ± 2.6% | Tumor Volume (1.3 mpk qd, day 2): 204 ± 30 mm^3 | Body Weight (1.3 mpk qd, day 4): 24.9 ± 0.5 g | Body Weight (% Change) (1.3 mpk qd, day 4): −0.8 ± 1.7% | Tumor Volume (1.3 mpk qd, day 4): 243 ± 36 mm^3 | Body Weight (1.3 mpk qd, day 7): 24.2 ± 0.5 g | Body Weight (% Change) (1.3 mpk qd, day 7): −3.5 ± 1.3% | Tumor Volume (1.3 mpk qd, day 7): 278 ± 35 mm^3 | Body Weight (1.3 mpk qd, day 9): 24.5 ± 0.5 g | Body Weight (% Change) (1.3 mpk qd, day 9): −2.2 ± 2.0% | Tumor Volume (1.3 mpk qd, day 9): 326 ± 46 mm^3 | Body Weight (1.3 mpk qd, day 11): 25.4 ± 0.4 g | Body Weight (% Change) (1.3 mpk qd, day 11): 1.3 ± 1.4% | Tumor Volume (1.3 mpk qd, day 11): 370 ± 40 mm^3 | Body Weight (1.3 mpk qd, day 14): 25.2 ± 0.8 g | Body Weight (% Change) (1.3 mpk qd, day 14): 0.5 ± 3.2% | T/C (%) (1.3 mpk qd, day 14): 38% | TGI (%) (1.3 mpk qd, day 14): 71% | Tumor Volume (1.3 mpk qd, day 14): 473 ± 44 mm^3 | Tumor Size (mm^3) (1.3 mpk qd, day 14): 473 ± 44 mm^3 | Body Weight (3 mpk tiw, day 0): 24.0 ± 0.2 g | Body Weight (% Change) (3 mpk tiw, day 0): 0.0% | Tumor Volume (3 mpk tiw, day 0): 165 ± 13 mm^3 | Body Weight (3 mpk tiw, day 2): 23.8 ± 0.3 g | Body Weight (% Change) (3 mpk tiw, day 2): −1.0 ± 0.9% | Tumor Volume (3 mpk tiw, day 2): 251 ± 18 mm^3 | Body Weight (3 mpk tiw, day 4): 24.1 ± 0.3 g | Body Weight (% Change) (3 mpk tiw, day 4): 0.3 ± 0.7% | Tumor Volume (3 mpk tiw, day 4): 381 ± 26 mm^3 | Body Weight (3 mpk tiw, day 7): 24.5 ± 0.2 g | Body Weight (% Change) (3 mpk tiw, day 7): 2.0 ± 0.2% | Tumor Volume (3 mpk tiw, day 7): 501 ± 41 mm^3 | Body Weight (3 mpk tiw, day 9): 24.7 ± 0.2 g | Body Weight (% Change) (3 mpk tiw, day 9): 2.8 ± 0.6% | Tumor Volume (3 mpk tiw, day 9): 525 ± 40 mm^3 | Body Weight (3 mpk tiw, day 11): 24.7 ± 0.2 g | Body Weight (% Change) (3 mpk tiw, day 11): 3.1 ± 1.0% | Tumor Volume (3 mpk tiw, day 11): 540 ± 46 mm^3 | Body Weight (3 mpk tiw, day 14): 25.1 ± 0.2 g | Body Weight (% Change) (3 mpk tiw, day 14): 4.6 ± 1.5% | T/C (%) (3 mpk tiw, day 14): 52% | TGI (%) (3 mpk tiw, day 14): 56% | Tumor Volume (3 mpk tiw, day 14): 644 ± 56 mm^3 | Tumor Size (mm^3) (3 mpk tiw, day 14): 644 ± 56 mm^3 | Body Weight (4.3 mpk qd, day 0): 24.8 ± 0.4 g | Body Weight (% Change) (4.3 mpk qd, day 0): 0.0% | Tumor Volume (4.3 mpk qd, day 0): 165 ± 18 mm^3 | Body Weight (4.3 mpk qd, day 2): 23.9 ± 0.5 g | Body Weight (% Change) (4.3 mpk qd, day 2): −3.4 ± 1.1% | Tumor Volume (4.3 mpk qd, day 2): 209 ± 7 mm^3 | Body Weight (4.3 mpk qd, day 4): 23.6 ± 0.8 g | Body Weight (% Change) (4.3 mpk qd, day 4): −4.6 ± 2.0% | Tumor Volume (4.3 mpk qd, day 4): 154 ± 10 mm^3 | Body Weight (4.3 mpk qd, day 7): 23.7 ± 0.5 g | Body Weight (% Change) (4.3 mpk qd, day 7): −4.2 ± 1.3% | Tumor Volume (4.3 mpk qd, day 7): 81 ± 3 mm^3 | Body Weight (4.3 mpk qd, day 9): 23.5 ± 0.5 g | Body Weight (% Change) (4.3 mpk qd, day 9): −5.2 ± 1.2% | Tumor Volume (4.3 mpk qd, day 9): 39 ± 3 mm^3 | Body Weight (4.3 mpk qd, day 11): 24.7 ± 0.7 g | Body Weight (% Change) (4.3 mpk qd, day 11): −0.4 ± 1.7% | Tumor Volume (4.3 mpk qd, day 11): 6 ± 3 mm^3 | Body Weight (4.3 mpk qd, day 14): 23.5 ± 0.6 g | Body Weight (% Change) (4.3 mpk qd, day 14): −5.1 ± 1.9% | T/C (%) (4.3 mpk qd, day 14): 0% | TGI (%) (4.3 mpk qd, day 14): 115% | Tumor Volume (4.3 mpk qd, day 14): 0 ± 0 mm^3 | Tumor Size (mm^3) (4.3 mpk qd, day 14): 0 ± 0 mm^3 | Body Weight (4.5 mpk biw, day 0): 24.0 ± 0.6 g | Body Weight (% Change) (4.5 mpk biw, day 0): 0.0% | Tumor Volume (4.5 mpk biw, day 0): 161 ± 21 mm^3 | Body Weight (4.5 mpk biw, day 2): 23.4 ± 0.6 g | Body Weight (% Change) (4.5 mpk biw, day 2): −2.2 ± 1.0% | Tumor Volume (4.5 mpk biw, day 2): 239 ± 15 mm^3 | Body Weight (4.5 mpk biw, day 4): 23.7 ± 0.6 g | Body Weight (% Change) (4.5 mpk biw, day 4): −1.3 ± 0.7% | Tumor Volume (4.5 mpk biw, day 4): 276 ± 28 mm^3 | Body Weight (4.5 mpk biw, day 7): 24.8 ± 0.7 g | Body Weight (% Change) (4.5 mpk biw, day 7): 3.3 ± 0.9% | Tumor Volume (4.5 mpk biw, day 7): 296 ± 29 mm^3 | Body Weight (4.5 mpk biw, day 9): 24.2 ± 0.6 g | Body Weight (% Change) (4.5 mpk biw, day 9): 1.0 ± 0.7% | Tumor Volume (4.5 mpk biw, day 9): 285 ± 19 mm^3 | Body Weight (4.5 mpk biw, day 11): 24.5 ± 0.7 g | Body Weight (% Change) (4.5 mpk biw, day 11): 2.4 ± 1.1% | Tumor Volume (4.5 mpk biw, day 11): 254 ± 46 mm^3 | Body Weight (4.5 mpk biw, day 14): 25.1 ± 0.6 g | Body Weight (% Change) (4.5 mpk biw, day 14): 5.0 ± 0.7% | T/C (%) (4.5 mpk biw, day 14): 23% | TGI (%) (4.5 mpk biw, day 14): 89% | Tumor Volume (4.5 mpk biw, day 14): 285 ± 49 mm^3 | Tumor Size (mm^3) (4.5 mpk biw, day 14): 285 ± 49 mm^3 | Body Weight (4.5 mpk biw, day 16): 24.7 ± 0.8 g | Body Weight (% Change) (4.5 mpk biw, day 16): 3.1 ± 1.5% | Tumor Volume (4.5 mpk biw, day 16): 331 ± 60 mm^3 | Body Weight (4.5 mpk biw, day 18): 25.2 ± 0.8 g | Body Weight (% Change) (4.5 mpk biw, day 18): 5.3 ± 1.6% | Tumor Volume (4.5 mpk biw, day 18): 409 ± 97 mm^3 | Body Weight (4.5 mpk biw, day 21): 25.2 ± 0.7 g | Body Weight (% Change) (4.5 mpk biw, day 21): 5.2 ± 1.4%
